The numbers were not newly measured in patent publication US4636489A, “Modified protease inhibitors, process for their preparation, and pharmaceutical compositions prepared therefrom” (Plantorganwerk KG, priority 1983, dated 1987), which cites them from elsewhere.

The test system of data set [1] is chymotrypsin.
The subject of data set [2] is subtilisin.
Data set [3] relates to PMN-granulocyte elastase.
Data set [4] has as its system cathepsin G.
The subject of data set [5] is trypsin.
For data set [6], the system named is pancreaselastase.

B1: eglin C: protease inhibitor from leech extracts consisting of 70 amino acid radicals, described in DE-OS No. 28 08 396 (protein, UniProt P01051 1-70, looked up)
Eglin C: TEFGSELKSFPEVVGKTVDQAREYFTLHYPQYDVYFLPEGSPVTLDLRYNRVRVFYNPGTNVVNHVPHVG
For the molecule B1, the inhibition of chymotrypsin entry in data set [1] is recorded as “strongly inhibit”. The inhibition of subtilisin entry in data set [2] is “strongly inhibit”. In addition, the “inhibition of PMN-granulocyte elastase” value in data set [3] is listed as “strongly inhibit”. The “inhibition of cathepsin G” value in data set [4] is on record as “strongly inhibit”. Further, in data set [5], the inhibition of trypsin entry was “only poor inhibitors”. In addition, the inhibition of pancreaselastase entry in data set [6] is recorded as “only poor inhibitors”.
